Values quoted from earlier work in patent publication US12077586B2, “Bispecific antibodies for use in the treatment of hematological malignancies” (LAVA THERAPEUTICS N.V., priority 2018, dated 2024).

Assays:
Vδ2 chain = target: T1, Vδ2 chain (Homo sapiens, UniProt A0JD36); conditions: Mean Fluorescence Index class; γδ T-cells expressing Vδ2 chain paired with non Vγ9 chain; cited from earlier work
T1 construct: host or cells: γδ T-cells expressing a Vδ2 chain paired with a non-Vγ9 chain

Vγ9 chain = target: T2, Vγ9 chain (Homo sapiens, UniProt Q99603, T7A); conditions: Mean Fluorescence Index class; γδ T-cells expressing Vγ9 chain paired with non Vδ2 chain; cited from earlier work
T2 construct: host or cells: γδ T-cells expressing a Vγ9 chain paired with a non-Vδ2 chain

complete Vγ9Vδ2 TCR = target: T3, complete Vγ9Vδ2 TCR (Homo sapiens, UniProt A0JD36+Q99603, T7A); conditions: Mean Fluorescence Index class; cited from earlier work
T3 construct: host or cells: γδ T-cells expressing the complete Vγ9Vδ2 TCR

[1] = tested on: γδ T-cells not expressing any of the Vγ9Vδ2 TCR chains; conditions: Mean Fluorescence Index class; cells not expressing any Vγ9Vδ2 TCR chain; cited from earlier work

T1 sequence (A0JD36 with tags, fused parts or gaps): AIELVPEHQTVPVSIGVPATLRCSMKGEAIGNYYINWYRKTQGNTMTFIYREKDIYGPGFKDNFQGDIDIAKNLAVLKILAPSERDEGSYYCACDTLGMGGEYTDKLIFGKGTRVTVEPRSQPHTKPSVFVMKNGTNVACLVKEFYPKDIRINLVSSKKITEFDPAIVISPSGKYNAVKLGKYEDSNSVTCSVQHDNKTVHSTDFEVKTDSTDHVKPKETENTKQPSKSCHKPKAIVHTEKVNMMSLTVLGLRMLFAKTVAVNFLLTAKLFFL
T1 sequence (P07766 23-207 partner): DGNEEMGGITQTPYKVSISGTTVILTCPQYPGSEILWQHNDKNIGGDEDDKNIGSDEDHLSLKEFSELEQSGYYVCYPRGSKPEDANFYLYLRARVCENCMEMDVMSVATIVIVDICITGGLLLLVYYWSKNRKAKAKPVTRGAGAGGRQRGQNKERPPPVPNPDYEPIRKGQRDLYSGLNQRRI
T1 sequence (P09693 23-182 partner): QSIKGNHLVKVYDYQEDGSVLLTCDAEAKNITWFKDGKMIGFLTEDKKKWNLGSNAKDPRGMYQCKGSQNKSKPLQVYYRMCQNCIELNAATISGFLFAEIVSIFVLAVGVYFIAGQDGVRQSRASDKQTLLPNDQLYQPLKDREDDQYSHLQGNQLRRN
T1 sequence (P04234 22-171 partner): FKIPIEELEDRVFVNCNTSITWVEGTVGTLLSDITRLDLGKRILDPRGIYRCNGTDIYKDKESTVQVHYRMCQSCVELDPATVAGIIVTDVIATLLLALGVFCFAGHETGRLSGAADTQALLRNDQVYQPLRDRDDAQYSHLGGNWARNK
T1 sequence (P20963 22-164 partner): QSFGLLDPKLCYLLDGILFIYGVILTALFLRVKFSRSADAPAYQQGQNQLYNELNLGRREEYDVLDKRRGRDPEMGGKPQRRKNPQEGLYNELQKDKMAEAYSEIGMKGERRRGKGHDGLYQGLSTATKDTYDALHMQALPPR
T2 sequence (Q99603 with tags, fused parts or gaps T7A limits assumed): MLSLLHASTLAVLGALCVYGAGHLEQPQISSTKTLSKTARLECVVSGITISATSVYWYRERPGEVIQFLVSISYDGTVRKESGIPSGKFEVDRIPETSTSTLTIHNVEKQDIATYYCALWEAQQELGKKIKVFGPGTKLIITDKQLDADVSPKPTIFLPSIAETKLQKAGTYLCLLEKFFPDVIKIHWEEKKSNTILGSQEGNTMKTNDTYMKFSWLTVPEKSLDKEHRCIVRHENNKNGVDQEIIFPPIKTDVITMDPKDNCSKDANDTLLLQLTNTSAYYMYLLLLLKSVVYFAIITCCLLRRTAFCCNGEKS
T2 sequence (P07766 23-207 partner): as the sequence (P07766 23-207 partner) above
T2 sequence (P09693 23-182 partner): as the sequence (P09693 23-182 partner) above
T2 sequence (P04234 22-171 partner): as the sequence (P04234 22-171 partner) above
T2 sequence (P20963 22-164 partner): as the sequence (P20963 22-164 partner) above
T3 sequence (Q99603 with tags, fused parts or gaps T7A limits assumed): as the sequence (Q99603 with tags, fused parts or gaps T7A limits assumed) above
T3 sequence (A0JD36 with tags, fused parts or gaps, stated change not applied): as the sequence (A0JD36 with tags, fused parts or gaps) above
T3 sequence (P07766 23-207 partner): as the sequence (P07766 23-207 partner) above
T3 sequence (P09693 23-182 partner): as the sequence (P09693 23-182 partner) above
T3 sequence (P04234 22-171 partner): as the sequence (P04234 22-171 partner) above
T3 sequence (P20963 22-164 partner): as the sequence (P20963 22-164 partner) above

Molecule | Binding, Vδ2+ (Vδ2 chain) | Binding, Vγ9+ (Vγ9 chain) | Binding, Vγ9Vδ2+ (complete Vγ9Vδ2 TCR) | Binding, Vγ9Vδ2− [1]
5F5: Vγ9Vδ2-TCR binding VHH, SEQ ID NO: 150 (protein, antibody sequence) VHH: EVQLVESGGGLVQAGGSLRLSCAASGRTFSNYAMGWFRQAPGKEREFVAAISWSGGSTYYADSVKGRFTISRDNAKNTVYLQMNSLKPEDTAVYYCAAMFSGSESQLVVVITNLYEYDYWGQGTQVTVSS | ++ (“++” indicates an MFI above 20) | − (“−” indicates a Mean Fluorescence Index (MFI) below 1.5) | ++ (“++” indicates an MFI above 20) | − (“−” indicates a Mean Fluorescence Index (MFI) below 1.5)
5G3: Vγ9Vδ2-TCR binding VHH, SEQ ID NO: 141 (protein, antibody sequence) VHH: EVQLVESGGGLVQAGGSLRLSCAASGRTFSSYAMGWFRQAPGKEREFVAAVSWSGGSTYYADSVKGRFTISRDNARNTVYLQMNSLNPEDTAVYYCAASQDCSGPGCYTNEYDSWGQGTQVTVSS | − (“−” indicates a Mean Fluorescence Index (MFI) below 1.5) | ++ (“++” indicates an MFI above 20) | ++ (“++” indicates an MFI above 20) | − (“−” indicates a Mean Fluorescence Index (MFI) below 1.5)
6A1: Vγ9Vδ2-TCR binding VHH, SEQ ID NO: 151 (protein, antibody sequence) VHH: EVQLVESGGGLVQAGGSLRLSCAASGRTFSNYAMGWFRQAPGKEREFVATISWSGGSTYYADSVKGRFTISRDNAKNTVYLQMNSLKPEDTAVYYCAAAFSGSDYANTKKEVEYDYWGQGTQVTVSS | ++ (“++” indicates an MFI above 20) | − (“−” indicates a Mean Fluorescence Index (MFI) below 1.5) | ++ (“++” indicates an MFI above 20) | − (“−” indicates a Mean Fluorescence Index (MFI) below 1.5)
5C1: Vγ9Vδ2-TCR binding VHH, SEQ ID NO: 142 (protein, antibody sequence) VHH: EVQLVESGGGLVQPGGSLRLSCAASGSIFSNYAMAWFRQAPEKERDFLAAVSWSGGRTYYADSVKGRFTISRDNAKNTVNLQMNSLKPEDTAVYYCAASLSCSGPGCSLEEYDYWGQGTQVTVSS | +/− (“+/−” indicates an MFI of between 1.5 and 4.5) | ++ (“++” indicates an MFI above 20) | ++ (“++” indicates an MFI above 20) | − (“−” indicates a Mean Fluorescence Index (MFI) below 1.5)
6E4: Vγ9Vδ2-TCR binding VHH, SEQ ID NO: 152 (protein, antibody sequence) VHH: EVQLVESGGGLVQAGGSLRLSCAASGFTFDDYCIAWFRQAPGKEREPVSCITTSDGSTYYADSVKGRFTISSDNAKNTVYLQMNRLKPEDTAVYYCAAYFGYGCYGGAQDYRAMDYWGKGTLVTVSS | ++ (“++” indicates an MFI above 20) | − (“−” indicates a Mean Fluorescence Index (MFI) below 1.5) | ++ (“++” indicates an MFI above 20) | − (“−” indicates a Mean Fluorescence Index (MFI) below 1.5)
5D7: Vγ9Vδ2-TCR binding VHH, SEQ ID NO: 154 (protein, antibody sequence) VHH: EVQLVESGGGLVQAGGSLRLSCIASGRTFSNYAMGWFRQAPGKEREFVAAISWSGGMTDHADSVKGRFTISRDNAKNTVYLQMNSLKPEDTAVYYCAAAFAGDIPYGSSWYGDPTTYDYWGQGTQVTVSS | ++ (“++” indicates an MFI above 20) | − (“−” indicates a Mean Fluorescence Index (MFI) below 1.5) | ++ (“++” indicates an MFI above 20) | − (“−” indicates a Mean Fluorescence Index (MFI) below 1.5)
5B11: Vγ9Vδ2-TCR binding VHH, SEQ ID NO: 155 (protein, antibody sequence) VHH: EVQLVESGGGLVQAGGSLRLSCAASGRTSSTFSMAWFRQAPRKEREFVAAINWSGGSTRYADSVSDRFAISRDNAKNTVYLQMNNLKPEDTAVYYCAARRGGIYYSTQNDYDYWGQGTQVTVSS | − (“−” indicates a Mean Fluorescence Index (MFI) below 1.5) | − (“−” indicates a Mean Fluorescence Index (MFI) below 1.5) | + (“+” indicates an MFI of between 4.6 and 20) | − (“−” indicates a Mean Fluorescence Index (MFI) below 1.5)
6E3: Vγ9Vδ2-TCR binding VHH, SEQ ID NO: 144 (protein, antibody sequence) VHH: EVQLVESGGGLVQAGGSLRLSCAASGRPFSNYGMGWFRQAPGKKREFVAGISWSGGSTDYADSVKGRLTISRDNAKNTVYLQMNSLKPEDTAVYYCAAVFSGAETAYYPSDDYDYWGQGTQVTVSS | ++ (“++” indicates an MFI above 20) | − (“−” indicates a Mean Fluorescence Index (MFI) below 1.5) | ++ (“++” indicates an MFI above 20) | − (“−” indicates a Mean Fluorescence Index (MFI) below 1.5)
6G3: Vγ9Vδ2-TCR binding VHH, SEQ ID NO: 148 (protein, antibody sequence) VHH: EVQLVESGGGLVQAGGSLRLSCAASGRPFNNYGMGWFRQAPGKEREFVAGISWSGGSTYYADSVKGRFTISRDNAKNTVYLQMNSLKPEDTAVYYCAAVFSGAETAQYPSYDYDYWGQGTQVTVSS | ++ (“++” indicates an MFI above 20) | − (“−” indicates a Mean Fluorescence Index (MFI) below 1.5) | ++ (“++” indicates an MFI above 20) | − (“−” indicates a Mean Fluorescence Index (MFI) below 1.5)
6H3: Vγ9Vδ2-TCR binding VHH, SEQ ID NO: 147 (protein, antibody sequence) VHH: EVQLVESGGGLVQAGGSLRLSCAVSGRPFSNYGMGWFRQAPGKEREFVAGITWSGGSTHYADLVKGRFTISRDNAKNTVHLQMNSLKPEDTAVYYCAAVFSGAETAYYPSTEYDYWGQGTQVTVSS | ++ (“++” indicates an MFI above 20) | +/− (“+/−” indicates an MFI of between 1.5 and 4.5) | ++ (“++” indicates an MFI above 20) | − (“−” indicates a Mean Fluorescence Index (MFI) below 1.5)
6C1: Vγ9Vδ2-TCR binding VHH, SEQ ID NO: 146 (protein, antibody sequence) VHH: EVQLVESGGGLVQAGGSLRLSCAASGRPFSNYGMGWFRQAPGKKRESVAGISWSGGSTDYADSVKGRFTISRDNAKNTVYLQMNSLKPEDTAVYYCAAVFSGAETAYYPSDDYDYWGQGTQVTVSS | ++ (“++” indicates an MFI above 20) | − (“−” indicates a Mean Fluorescence Index (MFI) below 1.5) | ++ (“++” indicates an MFI above 20) | − (“−” indicates a Mean Fluorescence Index (MFI) below 1.5)
5E3: Vγ9Vδ2-TCR binding VHH, SEQ ID NO: 139 (protein, antibody sequence) VHH: EVQLVESGGGLVQAGGSLRLSCTASGRTFSSYAMGWFRQAPGKEREFVAAISWSGGTTYYADSVKGRFTISRDNAKNTVSLQMNSLKPEDTAVYFCAASLDCSGPGCHTAEYDYWGQGTQVTVSS | − (“−” indicates a Mean Fluorescence Index (MFI) below 1.5) | ++ (“++” indicates an MFI above 20) | ++ (“++” indicates an MFI above 20) | − (“−” indicates a Mean Fluorescence Index (MFI) below 1.5)
6H1: Vγ9Vδ2-TCR binding VHH, SEQ ID NO: 140 (protein, antibody sequence) VHH: EVQLVESGGGLVQAGGSLRLSCAATGRTFSEYAMGWFRQAPGKEREFAAAISWTGSKTYYADSVKGRFTISRDNAKNTVYLQMNSLKPEDTAVYYCAASSDCSGPGCHTEEYDYWGQGTQVTVSS | − (“−” indicates a Mean Fluorescence Index (MFI) below 1.5) | ++ (“++” indicates an MFI above 20) | ++ (“++” indicates an MFI above 20) | − (“−” indicates a Mean Fluorescence Index (MFI) below 1.5)
6C4: Vγ9Vδ2-TCR binding VHH, SEQ ID NO: 156 (protein, antibody sequence) VHH: EVQLVESGGGLVQAGGSLRLSCAVSVRTFSDYRMGWFRQAPGKEREFVSTISWSGGLTYYADSVKGRFTISRDNSKNTLYLQMNSLKPEDTAVYYCAAGGGYAGGTYYHPEEWGQGTQVTVSS | +/− (“+/−” indicates an MFI of between 1.5 and 4.5) | ++ (“++” indicates an MFI above 20) | ++ (“++” indicates an MFI above 20) | − (“−” indicates a Mean Fluorescence Index (MFI) below 1.5)
5C7: Vγ9Vδ2-TCR binding VHH, SEQ ID NO: 153 (protein, antibody sequence) VHH: EVQLVESGGGLVQAGDSLRLSCAASGRTFSRYTMGWFRQAPGKEREFVAAISWSGGRTNFAGSVKGRFTISRDNAKNTVYLQMNSLKPEDTAVYYCAADWLPVPGRESYDYWGQGTQVTVSS | +/− (“+/−” indicates an MFI of between 1.5 and 4.5) | − (“−” indicates a Mean Fluorescence Index (MFI) below 1.5) | +/− (“+/−” indicates an MFI of between 1.5 and 4.5) | − (“−” indicates a Mean Fluorescence Index (MFI) below 1.5)
